Patent publication US10280205B2, “Method for treating cancer with an activated T lymphocyte that selectively recognizes a cancer cell consisting of specific peptide” (immatics biotechnologies GmbH, priority 2015, dated 2019)

Each substance was assayed against HLA-A*02:01 (Homo sapiens, UniProt P04439, D140Y/D185E/D98H/E176V/E277Q/G131W/G231S/I119V/I121R/I166T/I218V/L300P/L318F/N151K/N90K/P208A/P217A/Q86G/Q94H/R138H/R169H/T345S) (assay: MHC binding assay: UV-ligand exchange with beta2m ELISA (exchange yield)). Settings: binding to HLA-A*02:01, β2m ELISA.
From the text: Candidate peptides for T cell based therapies according to the present invention were further tested for their MHC binding capacity (affinity). The individual peptide-MHC complexes were produced by UV-ligand exchange, where a UV-sensitive peptide is cleaved upon UV-irradiation, and exchanged with the peptide of interest as analyzed. Only peptide candidates that can effectively bind and stabilize the peptide-receptive MHC molecules prevent dissociation of the MHC complexes. To determine the yield of the exchange reaction, an ELISA was performed based on the detection of the light chain (β2m) of stabilized MHC complexes. The assay was performed as generally described in Rodenko et al. (Rodenko et al., 2006).
96 well MAXISorp plates (NUNC) were coated over night with 2 ug/ml streptavidin in PBS at room temperature, washed 4× and blocked for 1 h at 37° C. in 2% BSA containing blocking buffer. […] Peptide-MHC monomers of the UV-exchange reaction were diluted 100 fold in blocking buffer. Samples were incubated for 1h at 37° C., washed four times, incubated with 2 ug/ml HRP conjugated anti-β2m for 1h at 37° C., washed again and detected with TMB solution that is stopped with […]. Absorption was measured at 450 nm. Candidate peptides that show a high exchange yield (preferably higher than 50%, most preferred higher than 75%) are generally preferred for a generation and production of antibodies or fragments thereof, and/or T cell receptors or fragments thereof, as they show sufficient avidity to the MHC molecules and prevent dissociation of the MHC complexes.

| Substance | Peptide exchange (MHC class I binding score, peptide exchange yield) |
| --- | --- |
| 239 (AAFAGKLLSV; listed as Homo sapiens) [compound 239] | “+++” (≥50 = +++) |
| 315 (YLQDVVEQA; listed as Homo sapiens) [compound 315] | “+++” (≥50 = +++) |
| 390 (ALFMKQIYL; listed as Homo sapiens) [compound 390] | “+++” (≥50 = +++) |
| 69 (FQLDPSSGVLVTV; listed as Homo sapiens) [compound 69] | “+++” (≥50 = +++) |
| 117 (ILPDGEDFLAV; listed as Homo sapiens) [compound 117] | “+++” (≥50 = +++) |
| 165 (SLLDEIRAV; listed as Homo sapiens) [compound 165] | “+++” (≥50 = +++) |
| 428 (KLGHTDILVGV; listed as Homo sapiens) [compound 428] | “++” (≥20% = ++) |
| 87 (ALPEAPAPLLPHIT; listed as Homo sapiens) [compound 87] | “++” (≥20% = ++) |
| 76 (ILIDSIYKV; listed as Homo sapiens) [compound 76] | “+++” (≥50 = +++) |
| 353 (YLFEMDSSL; listed as Homo sapiens) [compound 353] | “++” (≥20% = ++) |
| 324 (FLYDEIEAEV; listed as Homo sapiens) [compound 324] | “+++” (≥50 = +++) |
| 62 (VLLDVSAGQLLM; listed as Homo sapiens) [compound 62] | “++++” (≥75% = ++++) |
| 195 (GLFADLLPRL; listed as Homo sapiens) [compound 195] | “+++” (≥50 = +++) |
| 204 (KIAENVEEV; listed as Homo sapiens) [compound 204] | “++” (≥20% = ++) |
| 77 (ILVEADGAWVV; listed as Homo sapiens) [compound 77] | “++++” (≥75% = ++++) |
| 154 (ALDDGTPAL; listed as Homo sapiens) [compound 154] | “++” (≥20% = ++) |
| 66 (FLDENIGGVAV; listed as Homo sapiens) [compound 66] | “+++” (≥50 = +++) |
| 182 (MLLEAPGIFL; listed as Homo sapiens) [compound 182] | “+++” (≥50 = +++) |
| 90 (TLLQIIETV; listed as Homo sapiens) [compound 90] | “+++” (≥50 = +++) |
| 215 (QLINHLHAV; listed as Homo sapiens) [compound 215] | “+++” (≥50 = +++) |

| Substance | Peptide exchange (MHC class I binding score, peptide exchange yield) |
| --- | --- |
| 344 (YLQDQHLLLTV; listed as Homo sapiens) [compound 344] | “+++” (≥50 = +++) |
| 84 (VTFGEKLLGV; listed as Homo sapiens) [compound 84] | “++” (≥20% = ++) |
| 278 (QLLDVVLTI; listed as Homo sapiens) [compound 278] | “++” (≥20% = ++) |
| 25 (FLPDEPYIKV; listed as Homo sapiens) [compound 25] | “+++” (≥50 = +++) |
| 93 (LLQAIKLYL; listed as Homo sapiens) [compound 93] | “++” (≥20% = ++) |
| 340 (ALLSMTFPL; listed as Homo sapiens) [compound 340] | “++++” (≥75% = ++++) |
| 124 (ALYETELADA; listed as Homo sapiens) [compound 124] | “++” (≥20% = ++) |
| 219 (KLSDIGITV; listed as Homo sapiens) [compound 219] | “+++” (≥50 = +++) |
| 43 (VLSSLEINI; listed as Homo sapiens) [compound 43] | “++” (≥20% = ++) |
| 287 (FLNEFFLNV; listed as Homo sapiens) [compound 287] | “+++” (≥50 = +++) |
| 217 (ALIHPVSTV; listed as Homo sapiens) [compound 217] | “++” (≥20% = ++) |
| 284 (ILLSQTTGV; listed as Homo sapiens) [compound 284] | “+++” (≥50 = +++) |
| 4 (GIMEHITKI; listed as Homo sapiens) [compound 4] | “++++” (≥75% = ++++) |
| 109 (IILSILEQA; listed as Homo sapiens) [compound 109] | “++++” (≥75% = ++++) |
| 111 (YVWGFYPAEV; listed as Homo sapiens) [compound 111] | “+++” (≥50 = +++) |
| 309 (GLFDGVPTTA; listed as Homo sapiens) [compound 309] | “+++” (≥50 = +++) |
| 397 (YLFGERLLEC; listed as Homo sapiens) [compound 397] | “+++” (≥50 = +++) |
| 321 (GLFEDVTQPGILL; listed as Homo sapiens) [compound 321] | “++++” (≥75% = ++++) |
| 354 (LILEGVDTV; listed as Homo sapiens) [compound 354] | “++” (≥20% = ++) |
| 130 (FLWNGEDSALL; listed as Homo sapiens) [compound 130] | “+++” (≥50 = +++) |

More lines, now with the values ahead:

| Peptide exchange (MHC class I binding score, peptide exchange yield) | Substance |
| --- | --- |
| “+++” (≥50 = +++) | 591 (SMAELDIKL; listed as Homo sapiens) [compound 591] |
| “++++” (≥75% = ++++) | 466 (VLIANLEKL; listed as Homo sapiens) [compound 466] |
| “++” (≥20% = ++) | 516 (AVGPASILKEV; listed as Homo sapiens) [compound 516] |
| “+++” (≥50 = +++) | 467 (FLAKDFNFL; listed as Homo sapiens) [compound 467] |
| “+++” (≥50 = +++) | 584 (ALAEVAAMENV; listed as Homo sapiens) [compound 584] |
| “+++” (≥50 = +++) | 436 (HLAEVSAEV; listed as Homo sapiens) [compound 436] |
| “++” (≥20% = ++) | 570 (ALANQIPTV; listed as Homo sapiens) [compound 570] |
| “+++” (≥50 = +++) | 613 (RLLPPGAVVAV; listed as Homo sapiens) [compound 613] |
| “+++” (≥50 = +++) | 571 (LLLTTIPQI; listed as Homo sapiens) [compound 571] |
| “+++” (≥50 = +++) | 572 (ALADLIEKELSV; listed as Homo sapiens) [compound 572] |
| “+++” (≥50 = +++) | 480 (ALLEDSCHYL; listed as Homo sapiens) [compound 480] |
| “+++” (≥50 = +++) | 437 (SMAPGLVIQAV; listed as Homo sapiens) [compound 437] |
| “+++” (≥50 = +++) | 560 (ALWDIETGQQTTT; listed as Homo sapiens) [compound 560] |
| “+++” (≥50 = +++) | 486 (AVMESIQGV; listed as Homo sapiens) [compound 486] |
| “+++” (≥50 = +++) | 521 (MLLTKLPTI; listed as Homo sapiens) [compound 521] |
| “++++” (≥75% = ++++) | 553 (SLLNQDLHWSL; listed as Homo sapiens) [compound 553] |
| “+++” (≥50 = +++) | 594 (IMLKGDNITL; listed as Homo sapiens) [compound 594] |
| “+++” (≥50 = +++) | 545 (LLADLLHNV; listed as Homo sapiens) [compound 545] |
| “+++” (≥50 = +++) | 525 (VLLEAGEGLVTI; listed as Homo sapiens) [compound 525] |
| “++” (≥20% = ++) | 431 (SLVNVVPKL; listed as Homo sapiens) [compound 431] |
| “+++” (≥50 = +++) | 596 (ALLDQTKTLAESAL; listed as Homo sapiens) [compound 596] |
